The values that follow come from US20170320946A1.

For assay [1], the target named is huTREM-1 expressed as amino-terminal FLAG peptide fusion protein on transfected COS-7 or 293 cells (human) (UniProt Q9NP99). Put plainly: FACS of 293 cells transiently transfected with TREM-1-FLAG, stained with anti-FLAG mAb M2; isotype-matched control set to the lower quadrant.
Assay [2] addresses huTREM-2 expressed as amino-terminal FLAG peptide fusion protein on transfected 293 cells (human) (UniProt Q9NZC2). Put plainly: FACS of 293 cells transiently transfected with TREM-2-FLAG, stained with anti-FLAG mAb M2; isotype-matched control set to the lower quadrant.

As to ANTI-FLAG mAb M2 (antibody), the values for the percentage of cells stained (upper right quadrant) in assay [1] and in assay [2] were 21.5% and 17.9%, respectively.
